According to PMC4981310 (PLoS Pathogens, 2016):

Test system: Nc1ncnc2c1ncn2[C@@H]1O[C@H](COP(=O)(O)OP(=O)(O)O[C@H]2O[C@H](CO)[C@@H](O)[C@H](O)[C@H]2O)[C@@H](O)[C@H]1O
Assay: purified protein
Settings: Mg2+ (stimulates kcat) compulsory-order ternary-complex mechanism; ADP-glucose binds before glucose 1-phosphate

Substance: GlgA (Mycobacterium tuberculosis H37Rv)
- Km: 46 ± 4 µM
- Vmax: 21.4 µmol/min/mg
- kcat: 15.4 ± 0.3 s⁻¹
